Laboratory results: US20210317211A1 (published 2021)

What was measured:
[1] = molecular target: T1, human TREM2 over-expressed on Expi 293 cells (human, UniProt Q9NZC2 19-230); experiment: flow cytometry on Expi 293 cells over-expressing human TREM2; Alexa Fluor 647 secondary antibody
T1 construct: also called Expi-hTREM2; hTREM2
T1 sequence: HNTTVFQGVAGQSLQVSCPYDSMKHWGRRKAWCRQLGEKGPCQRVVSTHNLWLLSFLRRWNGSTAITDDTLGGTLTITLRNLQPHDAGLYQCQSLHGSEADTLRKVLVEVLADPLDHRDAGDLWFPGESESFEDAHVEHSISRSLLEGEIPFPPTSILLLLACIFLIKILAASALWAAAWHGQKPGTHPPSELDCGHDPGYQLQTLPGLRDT
Method: (§1) 100,000 to 500,000 Expi 293 parental cells or Expi 293 cells over-expressing human or mouse TREM2 were plated in […] well plates and dead cells were stained with Zombie Near Infrared (Biolegend). Titrations of indicated unconjugated antibodies were incubated with these cells within a range of 0 ug/ml to 10 ug/ml in a 1:3 dilution range across 8-10 points. Dependent on their isotype (higG1 or mIgG2a), these primary unconjugated antibodies were detected with Alexa Fluor 647 conjugated anti-human Fc or anti-mouse Fc secondary antibodies (Jackson Immunoresearch). Alexa Fluor 647 signal was measured by flow cytometry (BD Fortessa X-14, BD Biosciences). EC50 values were calculated by curve fitting signal generated from antibodies binding to over-expressing cells over background fluorescence generated from HEK293 parental cells in Graphpad Prism (Graphpad Software).

[2] = molecular target: T2, mouse TREM2 over-expressed on Expi 293 cells (mouse, UniProt Q99NH8 19-227); experiment: flow cytometry on Expi 293 cells over-expressing mouse TREM2; Alexa Fluor 647 secondary antibody
T2 construct: also called Expi-mTREM2; mTREM2
T2 sequence: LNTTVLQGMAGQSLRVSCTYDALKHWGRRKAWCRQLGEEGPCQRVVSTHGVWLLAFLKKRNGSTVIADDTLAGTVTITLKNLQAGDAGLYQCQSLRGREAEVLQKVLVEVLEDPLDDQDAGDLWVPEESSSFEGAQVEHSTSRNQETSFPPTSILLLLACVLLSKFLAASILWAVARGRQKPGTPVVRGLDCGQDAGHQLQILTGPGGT
Method: as §1

B1: Rat IgG2B Clone #237920 (R&D Systems Cat #MAB17291) (antibody, V domains shown)
VH: EVQLVESGGGLVQPGRSLKLSCAASGFTFSNYYMAWVRQAPTKGLEWVASLTNSGGSTYYRDSVKGRFTLSRDNAKSTLYLQMDSLRSEDTATYYCTREWAGSGYFDYWGQGVMVTVSS
VL: NIVMTQSPKSMSLSVGDRVTMNCKASQNVGNNLAWYQQKPGQSPKLLLYYTSNRFTGVPDRFTGGGYGTDFTLTINSVQAEDAAFYYCQRIYNSPWTFGGGTKLELKR
notes: also called mAb 237920
[1]
  EC50: 0.6 nM
[2]
  EC50: 0.9 nM
